Our source for the reduction of the MFI of the binding of human FAM19A5-Fc to U87MG cells values is US20250354169A1.

This test has as its target human FAM19A5-Fc protein (human) (UniProt Q7Z5A7). Nature of the test: binding inhibition, flow cytometry: 0.1 ug FAM19A5-Fc pre-incubated with 200 uL scFv supernatant, added to U87MG cells, detected with anti-human IgG 488; control GFP AAV supernatant. On the technique in general: In flow cytometry, cells or beads pass a laser one at a time.
Sequence of UniProt Q7Z5A7 (Q7Z5A7 44-132): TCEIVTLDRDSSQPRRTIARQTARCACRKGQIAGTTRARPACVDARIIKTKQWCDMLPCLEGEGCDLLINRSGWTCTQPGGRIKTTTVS

B1: anti-FAM19A5 ("1-65") scFv, secreted by cells transduced with scAAV9-CMV-1-65-ScFv (scFv, part only)
scFv: ALTQPSSVSANPGETVKITCSGGGSSGYGYGWYQQKSPSSAPLTVIYWNDKRPSDIPSRFSGSKSGSTHTLTITGVQAEDEAVYFCGNDDYSSDSGYVGVFGAGTTLTVLSGGGGSSGGGGSAVTLDESGGGLQTPGGALSLVCKASGFTFSSYQMGWVRQAPGKGLEWVGVINKSGSDTSYGSAVKGRATISRDNGQSTVRLQLNNLRAEDTGTYFCAKGSASYITAATIDAWGHGTEVIVSS
modifications: C-terminal FLAG tag
Turning to B1, the reduction of the MFI of the binding of human FAM19A5-Fc to U87MG cells was determined as 19%.

B2: anti-FAM19A5 ("2-13") scFv, secreted by cells transduced with scAAV9-CMV-2-13-ScFv (scFv, part only)
scFv: ALTQPSSVSANPGETVKITCSGGSYSYGWFQQKSPGSALVTVIYWDDERPSDIPSRFSGALSGSTNTLTITGVQADDEAVYFCGTEDISGTAGVFGAGTTLTVLSGGGGSSGGGGSAVTLDESGGGLQTPGGALSLVCKASGFTFSSHGMFWVRQTPGKGLEYVAEITNDGSGTNYGSAVKGRATISRDNGQSTVRLQLNNLRAEDTGTYFCARSTYECPGGFSCWGDTGQIDAWGHGTEVIVSS
modifications: C-terminal FLAG tag
In turn, B2 came in with a reduction of the MFI of the binding of human FAM19A5-Fc to U87MG cells of 68%.
